B1: Nanos homolog 2, residues 63 to 115; numbered along this chain, P60321 (parent)
chain: CNFCKHNGESRHVYSSHQLKTPDGVVVCPILRHYVCPVCGATGDQAHTLKYCP
B2: Dynamin-binding protein, residues 146 to 206; numbered along this chain, Q6XZF7 (parent)
chain: SMGQARALMGLSAQLDEELDFREGDVITIIGVPEPGWFEGELEGRRGIFPEGFVELLGPLR

Variants of: B1
Assay: abundance fitness (aPCA) (normalised: wild type 0, dead -1); higher = more abundant; growth selection in yeast, the domain comes from the species named
Settings: Homo sapiens

Abundance fitness, by site and new letter:
C52: R -0.506; H -0.181; F -0.789; D -0.505; P -0.249; E -0.64; Y -0.497; V -0.721; K -0.488; A -0.777; Q -0.574; G -0.732; S -0.432; W -0.824; M -0.788; I -0.731
L49: M 0.148; P 0.026; Y 0.057; Q 0.347; E -0.095; I 0.251; G -0.05; F -0.076; W -0.021; R 0.185; C -0.368; V 0.104; D -0.046; H 0.169; A 0.081; N -0.013; T 0.016; S -0.071
P53: G -0.359; S -0.439
K50: L -0.379; E -0.185; M -0.063; Q -0.225; A -0.284; Y -0.318; V -0.22; G -0.298; D -0.484; H -0.249; W -0.226; T -0.117; C -0.42; N -0.1; P 0.145; F -0.418; I -0.809; S -0.179
Q45: V -0.047; Y -0.168; N 0.085; M 0.119; W -0.368; P -0.429; T -0.074; K 0.024; L -0.037; S 0.039
T48: K 0.052; R -0.247; I -0.417; L -0.224; M -0.12; E 0.091; H -0.363; F -0.326; G -0.226; V -0.045; D -0.347; S -0.19; C -0.158; A -0.136; W -0.284; Q -0.031
A46: P -0.403; D -0.426; G -0.133; L -0.649; R -0.322; N -0.694; E -0.202; M -0.6; C -0.816; H -0.124; V -0.192; Y -0.47; S -0.241; K -0.349; I -0.308; W -0.77; Q -0.587
H47: N -0.591; I -0.981; S -1.01; V -0.628; K -0.616; R -0.443; Q -0.739; P -0.607; D -0.463; L -0.735; M -0.647; A -0.431; Y -0.621; W -0.781; T -0.695; G -0.643
Y51: V -0.071; K 0.024; F 0.097; L -0.137; W -0.237; I -0.34; T -0.097; P -0.287; D -0.381; Q -0.163; C -0.21; N 0.075; S -0.104; M -0.203; G -0.193; E -0.368; R -0.258

Variants of: B2
Assay: as above
Settings: Homo sapiens

Abundance fitness: each site, then its substitutions
G36: K -0.347; L -0.831; M -0.584; D -0.824; E -0.958
E17: T -0.101; C 0.07
F21: I -0.435; E -0.481; T -0.465; V -0.711; N -0.832
A13: T 0.353; I -0.541; P 0.013; H -0.548; Q -0.348; E -0.57
L15: Q 0.137; S 0.283; E 0.034; T 0.273; F 0.037; G 0.08
L11: V -0.402; Q 0.191
Q4: L -0.176; M -0.065
T28: E 0.016; W -0.809; C -0.941; S 0.011
M9: T 0.017; C -0.013; F -0.225
V26: F -0.464; C -0.45; T -0.319; E -0.27; R -0.353; G -0.687; L 0.043; Q -0.532; H -0.279; S -0.704; N -0.594; M -0.154; K -0.311; Y -0.416; W -0.554; P -0.64
S12: M -0.083; E -0.426; L -0.641
E18: I -0.212; K 0.23; G -0.17; N -0.236
L8: S -0.305; T 0.014
S1: N -0.049; I 0.103; R -0.319; Y 0.064; A 0.121; P -0.661; W -0.16; C -0.077; F -0.029; H -0.104; T -0.092; L -0.554; D -0.036; V 0.076; M 0.073
G10: L -0.436; R -0.014; E -0.14; Q -0.016
G31: W -0.955; T -0.717; K -0.085; P -0.121; Y -0.975
Q14: V -0.175; Y -0.537; I -0.354; D -0.145; R 0.142; K -0.092
A5: G -0.008; P -0.686; S -0.545; C -0.302; K -0.696; D -0.706
L19: K -0.705; D -0.413; H -0.768; C -0.684; A -0.525
R6: Q -0.495; Y -0.471; N -0.763
P35: I -0.642; Q -0.203; V -0.202; R -0.309; G -0.743; N -0.471; D -0.062; T -0.064; M -0.473; S -0.292; E -0.018; A -0.116; W -0.926; F -0.717; C -0.363
A7: F -1.01; Y -0.93; E -0.989; T -0.296; N -0.781; V -0.836; K -0.672
P33: N -1.07; G -0.469; T -0.386; D -1.11; Y -0.587; S -0.65; L -0.615; I -0.494; K -0.215; C -0.792; R -0.155; W -0.711; H -0.27; V -0.435; A -0.971; F -0.693
G3: N 0.245; W -0.227
M2: I -0.03; V -0.277; C -0.521
I30: A -0.374; R -0.284; K -0.129; L -0.085; Y -0.286; M -0.481; C -0.599
D25: F -0.518; K -1.03; M -0.724
I29: Q -0.082; Y -0.997; N -0.461; F -0.924; P -0.595; A -0.665
I27: S -0.753; G -0.627; D -0.694; K -0.73; E -0.773
D16: F -0.763; N -0.315
G24: W -0.891; Y -0.729; Q -0.733; P -0.749; R -0.778; I -0.897; T -0.818; N -0.253; F -0.82; E -0.593; H -0.679; A -0.551; V -0.701
E34: G -0.379; M -0.398; L -0.611; I -0.055; S -0.129; Q -0.364; A -0.42; R 0.025
R22: L -0.282; C 0.081; Q -0.027; Y -0.352; I -0.191; W -0.542
V32: N -0.232; G -0.599; C -0.12; F -0.446; K -0.349; P -1.04; Q 0.189

— the Human Domainome abundance scans (Beltran et al. 2025)
